US20160201097A1, “Materials and Methods of Producing 7-Carbon Monomers” (INVISTA North America S.á.r.l., priority 2014, published 2016)

Legend:
Format in all cases: biochemical
[1] = carboxylate reductase activity: pimelate to pimelate semialdehyde (NADPH consumption, A340); conditions: purified enzyme enhanced by sfp gene product, 2 mM pimelate, pH 7.5, room temperature, 20 min; against the empty vector control (FIG. 8)
Experimental: A nucleotide sequence encoding a HIS-tag was added to the nucleic acid sequences from Segniliparus rugosus and Segniliparus rotundus that encode the carboxylate reductases of SEQ ID NOs: 4 (EFV11917.1) and 6 (ADG98140.1), respectively (see FIG. 6), such that N-terminal HIS tagged carboxylate reductases could be produced. Each of the modified genes was cloned into a pET Duet expression vector along with a sfp gene encoding a HIS-tagged phosphopantetheine transferase from Bacillus subtilis, both under the T7 promoter. Each expression vector was transformed into a BL21[DE3] E. coli host and the resulting recombinant E. coli strains were cultivated at 37° C. in a 250 mL shake flask culture containing 50 mL LB media and antibiotic selection pressure, with shaking at 230 rpm. Each culture was induced overnight at 37° C. using an auto-induction media.
The pellet from each induced shake flask culture was harvested via centrifugation. Each pellet was resuspended and lysed via sonication, and the cell debris was separated from the supernatant via centrifugation. […]
Enzyme activity assays (i.e., from pimelate to pimelate semialdehyde) were performed in triplicate in a buffer composed of a final concentration of 50 mM HEPES buffer (pH=7.5), 2 mM pimelate, 10 mM MgCl2, 1 mM ATP and 1 mM NADPH. […] The consumption of NADPH was monitored by absorbance at 340 nm. […]

[2] = carboxylate reductase activity: pimelate semialdehyde to heptanedial (NADPH consumption, A340); conditions: purified enzyme enhanced by sfp gene product, 2 mM pimelate semialdehyde, pH 7.5, room temperature, 20 min; against the empty vector control (FIG. 11)
Experimental: The N-terminal His-tagged carboxylate reductase of SEQ ID NO: 6 (see Example 3 and FIG. 6) was assayed using pimelate semialdehyde as substrate. The enzyme activity assay was performed in triplicate in a buffer composed of a final concentration of 50 mM HEPES buffer (pH=7.5), 2 mM pimelate semialdehyde, 10 mM MgCl2, 1 mM ATP and 1 mM NADPH. The enzyme activity assay reaction was initiated by adding purified carboxylate reductase and phosphopantetheine transferase or the empty vector control to the assay buffer containing the pimelate semialdehyde and then incubated at room temperature for 20 min. The consumption of NADPH was monitored by absorbance at 340 nm.

[3] = carboxylate reductase activity: N7-acetyl-7-aminoheptanoate to N7-acetyl-7-aminoheptanal (NADPH consumption, A340); conditions: purified enzyme enhanced by sfp gene product, 2 mM N7-acetyl-7-aminoheptanoate, pH 7.5, room temperature, 20 min; against the empty vector control (FIG. 10)
Experimental: The activity of each of the N-terminal His-tagged carboxylate reductases of SEQ ID NOs: 3, 5, and 6 (see Examples 2 and 3, and FIG. 6) for converting N7-acetyl-7-aminoheptanoate to N7-acetyl-7-aminoheptanal was assayed in triplicate in a buffer composed of a final concentration of 50 mM HEPES buffer (pH=7.5), 2 mM N7-acetyl-7-aminoheptanoate, 10 mM MgCl2, 1 mM ATP, and 1 mM NADPH. The assays were initiated by adding purified carboxylate reductase and phosphopantetheine transferase or the empty vector control to the assay buffer containing the N7-acetyl-7-aminoheptanoate then incubated at room temperature for 20 min. The consumption of NADPH was monitored by absorbance at 340 nm.

B1: SEQ ID NO: 6: Segniliparus rotundus carboxylate reductase, N-terminal HIS tagged (protein, listed as Segniliparus rotundus)
chain: MTQSHTQGPQASAAHSRLARRAAELLATDPQAAATLPDPEVVRQATRPGLRLAERVDAILSGYADRPALGQRSFQTVKDPITGRSSVELLPTFDTITYRELRERATAIASDLAHHPQAPAKPGDFLASIGFISVDYVAIDIAGVFAGLTAVPLQTGATLATLTAITAETAPTLFAASIEHLPTAVDAVLATPSVRRLLVFDYRAGSDEDREAVEAAKRKIADAGSSVLVDVLDEVIARGKSAPKAPLPPATDAGDDSLSLLIYTSGSTGTPKGAMYPERNVAHFWGGVWAAAFDEDAAPPVPAINITFLPLSHVASRLSLMPTLARGGLMHFVAKSDLSTLFEDLKLARPTNLFLVPRVVEMLYQHYQSELDRRGVQDGTREAEAVKDDLRTGLLGGRILTAGFGSAPLSAELAGFIESLLQIHLVDGYGSTEAGPVWRDGYLVKPPVTDYKLIDVPELGYFSTDSPHPRGELAIKTQTILPGYYKRPETTAEVFDEDGFYLTGDVVAQIGPEQFAYVDRRKNVLKLSQGEFVTLAKLEAAYSSSPLVRQLFVYGSSERSYLLAVIVPTPDALKKFGVGEAAKAALGESLQKIARDEGLQSYEVPRDFIIETDPFTVENGLLSDARKSLRPKLKEHYGERLEAMYKELADGQANELRDIRRGVQQRPTLETVRRAAAAMLGASAAEIKPDAHFTDLGGDSLSALTFSNFLHDLFEVDVPVGVIVSAANTLGSVAEHIDAQLAGGRARPTFATVHGKGSTTIKASDLTLDKFIDEQTLEAAKHLPKPADPPRTVLLTGANGWLGRFLALEWLERLAPAGGKLITIVRGKDAAQAKARLDAAYESGDPKLAGHYQDLAATTLEVLAGDFSEPRLGLDEATWNRLADEVDFISHPGALVNHVLPYNQLFGPNVAGVAEIIKLAITTRIKPVTYLSTVAVAAGVEPSALDEDGDIRTVSAERSVDEGYANGYGNSKWGGEVLLREAHDRTGLPVRVFRSDMILAHQKYTGQVNATDQFTRLVQSLLATGLAPKSFYELDAQGNRQRAHYDGIPVDFTAESITTLGGDGLEGYRSYNVFNPHRDGVGLDEFVDWLIEAGHPITRIDDYDQWLSRFETSLRGLPESKRQASVLPLLHAFARPGPAVDGSPFRNTVFRTDVQKAKIGAEHDIPHLGKALVLKYADDIKQLGLL
modifications: N-terminal His tag
notes: Segniliparus rotundus carboxylate reductase, N-terminal HIS tagged
- acceptance of pimelate as substrate (NADPH consumption) [1]: accepted pimelate as substrate
- acceptance of pimelate semialdehyde as substrate, forming heptanedial (NADPH consumption) [2]: accepted pimelate semialdehyde as substrate
- acceptance of N7-acetyl-7-aminoheptanoate as substrate (NADPH consumption) [3]: accepted N7-acetyl-7-aminoheptanoate as substrate
